The source of these data is patent US7723122.

What is called koff is the rate constant with which the complex falls apart. A low value points to slow dissociation. A word on the kon: it is the second-order rate constant of association. Low values mean slower complex formation, high ones faster complex formation.

This assay has as its target protein A (UniProt P38507). The experiment in a line: SPR, BIACORE 3000, protein A immobilised on CM5 chip, 4.4 ug/ml BSA in flow at 20 ul/min; nonlinear regression with Rmax fixed at 880 RU. A general note: Surface plasmon resonance follows binding to a sensor surface in real time, without labels.

“BSA (molecular weight: 66,200) (from UniProt P02769 25-607) (other; other documents disagree on this pair)” gave a koff of 0.11 s⁻¹ and a kon of 880000 M⁻¹ s⁻¹.
